From patent publication US20220054630A1

Columns and labels:
sE2 wild-type = sE2 wild-type (UniProt P27958); assay: BLI
Wild-type = Wild-type (UniProt P27958); assay: BLI

Substance | Kd (sE2 wild-type) | Kd (Wild-type)
HC33.1 | 9.5 nM | –
HC84.26.WH.5DL | 4.3 nM | 4.3 nM
HC84.1 | 30 nM | –
HEPC74 | 5.1 nM | –
HCV1 | 42 nM | –
CBH-4D | 8.4 nM | –
CBH-4G | 15 nM | 15 nM
